# According to patent publication US20200157212A1 (Pfizer, published 2020):
# Where a chain is given by its changes, count along the chain named.
# T1: Terbium (Tb) labeled-SNAP tagged ROBO2 expressed on HEK293 cells (Homo sapiens (Human), UniProt Q9HCK4 22-1378, terbium label on the SNAP tag)
# T1 construct: also called Tb-labeled ROBO2 cells; ROBO2 expressing cells; not shown: SNAP tag
# T1 sequence: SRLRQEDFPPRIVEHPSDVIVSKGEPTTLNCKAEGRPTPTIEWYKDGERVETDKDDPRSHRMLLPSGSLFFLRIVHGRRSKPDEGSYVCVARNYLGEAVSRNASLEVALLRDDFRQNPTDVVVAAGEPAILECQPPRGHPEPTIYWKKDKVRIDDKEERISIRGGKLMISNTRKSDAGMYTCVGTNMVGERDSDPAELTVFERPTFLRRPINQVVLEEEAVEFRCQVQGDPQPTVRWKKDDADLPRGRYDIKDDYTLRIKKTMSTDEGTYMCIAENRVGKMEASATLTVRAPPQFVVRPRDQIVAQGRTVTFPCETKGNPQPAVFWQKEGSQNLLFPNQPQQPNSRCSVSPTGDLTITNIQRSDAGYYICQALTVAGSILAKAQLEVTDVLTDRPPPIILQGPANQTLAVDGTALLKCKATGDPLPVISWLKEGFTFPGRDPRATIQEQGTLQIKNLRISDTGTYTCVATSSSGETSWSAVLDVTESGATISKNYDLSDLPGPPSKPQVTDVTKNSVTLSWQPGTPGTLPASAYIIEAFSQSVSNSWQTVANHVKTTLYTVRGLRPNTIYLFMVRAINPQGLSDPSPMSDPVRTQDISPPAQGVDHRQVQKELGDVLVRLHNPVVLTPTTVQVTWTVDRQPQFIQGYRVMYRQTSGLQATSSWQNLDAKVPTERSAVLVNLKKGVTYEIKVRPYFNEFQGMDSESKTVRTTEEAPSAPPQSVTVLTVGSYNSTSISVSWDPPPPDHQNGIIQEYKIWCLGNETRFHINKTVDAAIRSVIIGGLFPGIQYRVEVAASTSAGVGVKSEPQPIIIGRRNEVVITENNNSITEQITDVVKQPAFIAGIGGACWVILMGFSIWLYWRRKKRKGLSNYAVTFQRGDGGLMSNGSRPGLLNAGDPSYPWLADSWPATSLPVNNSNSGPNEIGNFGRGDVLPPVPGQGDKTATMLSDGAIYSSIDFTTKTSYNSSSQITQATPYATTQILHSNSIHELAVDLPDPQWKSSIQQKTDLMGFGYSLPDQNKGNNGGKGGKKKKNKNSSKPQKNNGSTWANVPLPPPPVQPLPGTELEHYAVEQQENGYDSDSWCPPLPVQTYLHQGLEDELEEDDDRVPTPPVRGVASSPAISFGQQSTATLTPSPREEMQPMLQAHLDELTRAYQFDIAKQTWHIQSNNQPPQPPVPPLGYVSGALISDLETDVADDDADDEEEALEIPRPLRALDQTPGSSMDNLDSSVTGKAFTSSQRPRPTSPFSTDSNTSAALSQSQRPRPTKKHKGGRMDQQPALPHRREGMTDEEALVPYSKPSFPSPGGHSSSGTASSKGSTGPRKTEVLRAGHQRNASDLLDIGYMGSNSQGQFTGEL
# T2: Human ROBO2 overexpressed on HEK293 cells (human, UniProt Q9HCK4 22-1378)
# T2 construct: also called ROBO2 cells; native ROBO2
# T2 sequence: T1 sequence
# B1: Ab3 (antibody, human IgG1, kappa, V domains shown)
# VH: EVQLVQSGAEVKKPGASVKVSCKASGYTFTGYYMHWVRQAPGQGLEWMGWINPKSGATNFPQKFQGRVTMTRDTSITTAYMDLSRLRSDDTAVYYCARESGDDAFDIWGQGTMVTVSS
# VL: DIVMTQSPSSLSASVGDRVTITCRASQKISSYLNWYQQKPGKAPKLLIYAASSLQSGVPSRFSGSGSGTDFTLTISSLQPEDFATYYCQQSYSTSFGGGTKVEIKR
# notes: full-length human IgG
# B2: Ab22 (antibody, human IgG1, kappa, V domains shown)
# VH: B1 VH with K54R
# VL: B1 VL with K28S, S56Y
# notes: full-length human IgG
# B3: Ab29 (antibody, human IgG1, kappa, V domains shown)
# VH: B1 VH with W50A, N52D, A57T, N59M
# VL: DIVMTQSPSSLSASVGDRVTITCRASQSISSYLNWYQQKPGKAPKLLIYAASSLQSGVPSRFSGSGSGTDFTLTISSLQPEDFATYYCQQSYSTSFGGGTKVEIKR
# notes: full-length human IgG
# B4: CTIR2-10 (antibody, human IgG1, kappa, V domains shown)
# VH: B1 VH with T30R, Y33A, K54R, A57V, N59E
# VL: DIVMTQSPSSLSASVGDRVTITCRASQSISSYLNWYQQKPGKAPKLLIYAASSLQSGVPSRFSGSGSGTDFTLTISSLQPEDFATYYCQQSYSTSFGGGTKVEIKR
# notes: CDR-shuffled IgG
# B5: Ab58 (antibody, human IgG1, kappa, V domains shown)
# VH: B1 VH with S55D, A57D, N59E
# VL: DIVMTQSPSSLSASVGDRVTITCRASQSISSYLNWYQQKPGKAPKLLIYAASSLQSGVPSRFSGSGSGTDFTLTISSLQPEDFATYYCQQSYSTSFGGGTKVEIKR
# notes: full-length human IgG
# B6: Ab32 (antibody, human IgG1, kappa, V domains shown)
# VH: B1 VH with W50A, N52D, S55L, A57I, N59I
# VL: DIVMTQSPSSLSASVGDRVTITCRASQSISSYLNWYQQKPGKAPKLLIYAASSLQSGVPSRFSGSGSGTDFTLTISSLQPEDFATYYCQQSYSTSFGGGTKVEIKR
# notes: full-length human IgG
# B7: Ab40 (antibody, human IgG1, kappa, V domains shown)
# VH: B1 VH with K54N
# VL: B1 VL with K28S, Y92L, S93E, T94L, S95G
# notes: full-length human IgG
# B8: Abcs50 (antibody, human IgG1, kappa, V domains shown)
# VH: B1 VH with S55N, A57D, N59E
# VL: B1 VL with K28S, S56Y
# notes: chain-shuffled IgG
# B9: Ab83 (antibody, human IgG1, kappa, V domains shown)
# VH: B1 VH with K54R, S55N, A57I, N59S
# VL: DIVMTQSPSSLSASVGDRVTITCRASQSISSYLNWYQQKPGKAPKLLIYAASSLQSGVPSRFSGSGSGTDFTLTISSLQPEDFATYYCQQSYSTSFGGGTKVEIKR
# notes: full-length human IgG
# B10: Ab46 (antibody, human IgG1, kappa, V domains shown)
# VH: B1 VH with W50A, N52D, S55H, A57F, N59I
# VL: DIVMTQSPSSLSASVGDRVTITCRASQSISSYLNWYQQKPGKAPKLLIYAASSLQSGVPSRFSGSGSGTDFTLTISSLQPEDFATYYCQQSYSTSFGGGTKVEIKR
# notes: full-length human IgG
# B11: Abcs5 (antibody, human IgG1, kappa, V domains shown)
# VH: B1 VH with S55N, A57D, N59E
# VL: B1 VL with K28S, Y92L, S93E, T94L, S95G
# notes: chain-shuffled IgG
# B12: CTIR2-9 (antibody, human IgG1, kappa, V domains shown)
# VH: B1 VH
# VL: B1 VL with S56Y, Y92V, S93G, T94L, S95F
# notes: CDR-shuffled IgG
# B13: CTIR2-13 (antibody, human IgG1, kappa, V domains shown)
# VH: B1 VH with T30R, Y33A, N52D, K54R, S55T, A57L, N59K
# VL: B1 VL with S56Y
# notes: CDR-shuffled IgG
# B14: CTIR2-6 (antibody, human IgG1, kappa, V domains shown)
# VH: B1 VH
# VL: B1 VL with Y92V, S93G, T94L, S95F
# notes: CDR-shuffled IgG
# B15: Abcs12 (antibody, human IgG1, kappa, V domains shown)
# VH: B1 VH with K54R, S55N, A57I, N59S
# VL: B1 VL with K28S, Y92L, S93E, T94L, S95G
# notes: chain-shuffled IgG; also called Abes12
# Molecular target: T1, Terbium (Tb) labeled-SNAP tagged ROBO2 …
# Test: HTRF competition, competitor d2-SLIT2-N, ROBO2 HEK293 cells
# Method: (§1) Antibodies generated as a result of the affinity maturation campaign were screened by numerous assays for neutralization of SLIT2-N binding, selective binding to ROBO2 over ROBO1, and inhibition of SLIT2-N functional activity (see Table 2). A ROBO2-SLIT2-N homogenous time resolved fluorescence (HTRF) assay was used to identify antibodies that were capable of blocking SLIT2-N binding to ROBO2. In this assay, terbium (Tb) labeled-SNAP tagged ROBO2 expressing HEK293 cells were incubated with 5 nM d2-labeled SLIT-2N in the presence of 1 nM anti-ROBO2 antibodies for 1 hour. After incubation, fluorescence at 665 nm and 620 nm was measured on an Envision multilabel plate reader. […] Maximal signal was defined as the HTRF ratio of Tb-labeled ROBO2 cells with d2-labeled SLIT2-N in the absence of antibody, the minimum signal was defined as the HTRF ratio of Tb-labeled ROBO2 expressing HEK293 cells only. One nanomolar (nM) parental antibody, 93H2, was unable to block the HTRF assay, therefore this concentration was selected to identify clones with a higher affinity than 93H2 (Table 2, HTRF Ratio column). […] Antibodies derived from chain (Abcs series) or CDR shuffling (CTIR-2 series) were evaluated in 11-point, 5-fold dilution series with a top concentration of 1500 nM (Table 2 HTRF IC₅₀).
row,IC50 [nM],Binder
1,0.133,B1
2,0.229,B2
3,0.097,B3
4,0.04,B4
5,0.282,B5
6,0.234,B6
7,0.728,B7
8,0.051,B8
9,0.437,B9
10,0.109,B10
11,0.036,B11
12,0.064,B12
13,0.055,B13
14,0.067,B14
15,0.032,B15

# Molecular target: T2, Human ROBO2 overexpressed on HEK293 …
# Test: flow cytometry, Geo MFI ROBO2/ROBO1 HEK293 cells, 0.1 µg/ml
# Method: (§2) Binding of the antibodies was detected using a secondary fluorochrome conjugated anti-human IgG F(ab′)₂ antibody and samples were analyzed on a Fortessa cytometer (BD Biosciences). The fold ROBO2 selectivity was calculated as the geometric mean fluorescence intensity (Geo MFI) with ROBO2 cells/Geo MFI with ROBO1 cells. A fold change higher than 3 was considered to be ROBO2 specific (Table 2, Fold Selectivity). Some affinity matured clones had increased ROBO1 reactivity, for example Abcs 55, CTI-R2-10 and CTIR2-13.
# (§3) HTRF assays were run with 5 nM d2-labeled SLIT2-N and antibodies were added at 1 nM. […] Antibodies derived from chain (Abcs series) or CDR shuffling (CTIR-2 series) were evaluated in 11-point, 5-fold dilution series with a top concentration of 1500 nM, N.T. = not tested; ^cFold selectivity was calculated as Geometric Mean Fluorescent Intensity (Geo MFI) of ROBO2/Geo MFI of ROBO1 binding. […] Outcomes: results are listed in order of assays listed in the table (left to right), I.A. = Improved Affinity
row,Fold Selectivity for ROBO2/ROBO1 [fold],Binder
1,92,B1
2,67.4,B2
3,> 100,B3
4,21.8,B5
5,90.3,B6
6,> 100,B7
7,40.6,B9
8,> 100,B10

# Molecular target: T2, Human ROBO2 overexpressed on HEK293 …
# Test: flow cytometry, Geo MFI ROBO2/ROBO1 HEK293 cells, 2.5 µg/ml
# Method: as §2, §3
row,Fold Selectivity for ROBO2/ROBO1 [fold],Binder
1,2.3,B4
2,3.9,B8
3,5.1,B11
4,14.8,B12
5,2.3,B13
6,35,B14
7,15.7,B15

# Molecular target: T1, Terbium (Tb) labeled-SNAP tagged ROBO2 …
# Test: HTRF, 5 nM d2-SLIT2-N on Tb-SNAP-ROBO2 HEK293 cells, 1 nM antibody
# Method: as §1, with “In” for “Antibodies generated as a result of the affinity maturation campaign were screened by numerous assays for neutralization of SLIT2-N binding, selective binding to ROBO2 over ROBO1, and inhibition of SLIT2-N functional activity (see Table 2). A ROBO2-SLIT2-N homogenous time resolved fluorescence (HTRF) assay was used to identify antibodies that were capable of blocking SLIT2-N binding to ROBO2. In”
# HTRF assays were run with 5 nM d2-labeled SLIT2-N and antibodies were added at 1 nM. […] Antibodies derived from chain (Abcs series) or CDR shuffling (CTIR-2 series) were evaluated in 11-point, 5-fold dilution series with a top concentration of 1500 nM, N.T. = not tested; ^cFold selectivity was calculated as Geometric Mean Fluorescent Intensity (Geo MFI) of ROBO2/Geo MFI of ROBO1 binding.
row,HTRF Ratio,Binder
1,6610,B1
2,5730,B2
3,7730,B3
4,3920,B4
5,5570,B5
6,6000,B6
7,7430,B7
8,2710,B8
9,4770,B9
10,5710,B10
11,3540,B11
12,3540,B12
13,3530,B13
14,4160,B14
15,2910,B15

# Molecular target: T3, Human ROBO1 RSK mutant overexpressed on HEK293 cells (human, UniProt Q9Y6N7 26-1651)
# T3 construct: K137R and R139K already in the entry; also called ROBO1-RSK cells
# T3 sequence (Q9Y6N7 other isoform, or with tags, fused parts or gaps mutant limits assumed): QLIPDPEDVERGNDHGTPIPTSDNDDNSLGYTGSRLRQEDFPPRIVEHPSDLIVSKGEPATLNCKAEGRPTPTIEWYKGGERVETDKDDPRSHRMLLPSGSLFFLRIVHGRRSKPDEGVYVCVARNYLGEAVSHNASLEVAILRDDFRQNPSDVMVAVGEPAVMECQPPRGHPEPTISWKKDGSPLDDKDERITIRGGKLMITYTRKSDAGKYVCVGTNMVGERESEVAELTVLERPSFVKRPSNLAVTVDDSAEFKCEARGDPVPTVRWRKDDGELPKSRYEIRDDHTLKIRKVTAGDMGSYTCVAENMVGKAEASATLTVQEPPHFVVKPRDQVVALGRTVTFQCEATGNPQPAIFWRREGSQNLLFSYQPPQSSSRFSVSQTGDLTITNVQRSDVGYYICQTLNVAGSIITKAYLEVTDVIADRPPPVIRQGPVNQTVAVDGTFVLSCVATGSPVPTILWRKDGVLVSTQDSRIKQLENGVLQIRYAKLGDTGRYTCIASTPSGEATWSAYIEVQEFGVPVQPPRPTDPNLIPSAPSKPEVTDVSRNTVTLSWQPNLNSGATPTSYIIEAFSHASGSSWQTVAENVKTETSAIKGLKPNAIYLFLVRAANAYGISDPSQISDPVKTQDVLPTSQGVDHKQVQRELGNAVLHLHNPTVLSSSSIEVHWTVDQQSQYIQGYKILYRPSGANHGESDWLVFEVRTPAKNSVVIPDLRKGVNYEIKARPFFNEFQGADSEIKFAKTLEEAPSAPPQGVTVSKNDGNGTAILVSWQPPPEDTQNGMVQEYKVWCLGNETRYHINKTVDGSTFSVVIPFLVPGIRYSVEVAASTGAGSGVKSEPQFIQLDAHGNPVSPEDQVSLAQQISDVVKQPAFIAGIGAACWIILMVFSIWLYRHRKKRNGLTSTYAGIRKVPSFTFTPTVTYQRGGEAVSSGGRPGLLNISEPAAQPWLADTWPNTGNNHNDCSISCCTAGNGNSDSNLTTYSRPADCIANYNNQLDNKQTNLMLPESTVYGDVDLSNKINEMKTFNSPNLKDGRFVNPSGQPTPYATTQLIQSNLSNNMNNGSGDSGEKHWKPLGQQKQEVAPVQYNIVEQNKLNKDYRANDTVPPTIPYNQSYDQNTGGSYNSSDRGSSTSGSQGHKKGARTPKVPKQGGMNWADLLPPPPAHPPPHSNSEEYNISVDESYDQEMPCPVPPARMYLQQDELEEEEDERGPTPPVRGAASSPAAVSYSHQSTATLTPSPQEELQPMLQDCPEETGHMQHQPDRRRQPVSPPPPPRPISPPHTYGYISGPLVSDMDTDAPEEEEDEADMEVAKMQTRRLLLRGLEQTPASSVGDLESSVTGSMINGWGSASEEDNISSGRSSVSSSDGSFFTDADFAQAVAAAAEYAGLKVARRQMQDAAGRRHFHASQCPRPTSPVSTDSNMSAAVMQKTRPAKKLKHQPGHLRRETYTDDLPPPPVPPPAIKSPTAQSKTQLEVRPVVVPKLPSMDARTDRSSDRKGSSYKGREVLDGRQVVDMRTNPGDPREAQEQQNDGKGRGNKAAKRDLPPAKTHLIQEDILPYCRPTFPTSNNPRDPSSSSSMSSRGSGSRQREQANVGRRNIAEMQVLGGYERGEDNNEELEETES
# Test: flow cytometry, Geo MFI ROBO1-RSK/ROBO2-KSR HEK293 cells, 2.5 µg/ml
row,Fold Selectivity for RSK/KSR [fold],Binder
1,1.4,B4
2,1.3,B8
3,6.7,B11
4,> 100,B12
5,2.5,B13
6,> 100,B14
7,> 100,B15
